Series [1] deals with T1, hnRNPF (recombinant) (human, UniProt P52597 1-415).
T1 sequence: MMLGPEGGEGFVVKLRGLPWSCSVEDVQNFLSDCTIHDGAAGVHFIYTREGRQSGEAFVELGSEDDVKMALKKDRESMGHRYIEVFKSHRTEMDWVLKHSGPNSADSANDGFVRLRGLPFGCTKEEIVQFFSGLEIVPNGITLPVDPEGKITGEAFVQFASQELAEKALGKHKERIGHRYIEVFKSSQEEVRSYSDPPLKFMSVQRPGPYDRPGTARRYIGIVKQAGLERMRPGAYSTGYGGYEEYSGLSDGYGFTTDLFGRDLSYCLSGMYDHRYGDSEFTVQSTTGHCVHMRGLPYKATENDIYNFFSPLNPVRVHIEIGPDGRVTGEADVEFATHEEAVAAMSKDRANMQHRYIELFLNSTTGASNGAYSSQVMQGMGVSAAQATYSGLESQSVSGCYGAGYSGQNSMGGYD
Kind of series: EMSA. For orientation: In EMSA bound probe runs differently from free probe, usually more slowly.

Series [2] concerns the target T1, hnRNPF (recombinant). Description: pull-down.
The target of series [3] is T1, hnRNPF (recombinant). Description: EMSA. The source holds these as a separate data set.

For the molecule GCUUUGGUGGUGGAAUGGUGCUAUGUGG (structured_RNA) [I-8], the binding result with hnRNPF (recombinant) [1] is recorded as “binds”. In the case of GCUUUGGUGGUGGAAUGGUGCUAUGUGG (structured_RNA) [Biotin-I-8-wt], in the series with hnRNPF (recombinant) [2], the binding result is recorded as “binds”. For GCUUUGAUGAUGAAAUGAUGCUAUGUGG (ssRNA) [I-8 G4m], in the series with hnRNPF (recombinant) [3], the binding result is on record as “no binding”.

The values above are taken from publication PMC5769772.
